{"source": "the supplement of paper PMC6379048", "test_in_all_cases": "EC50 of free RNA motif oligo competing protein binding to immobilised probe", "key": {"LIN28B": {"target": "T1, LIN28B (UniProt Q6ZN17)", "T1 sequence": "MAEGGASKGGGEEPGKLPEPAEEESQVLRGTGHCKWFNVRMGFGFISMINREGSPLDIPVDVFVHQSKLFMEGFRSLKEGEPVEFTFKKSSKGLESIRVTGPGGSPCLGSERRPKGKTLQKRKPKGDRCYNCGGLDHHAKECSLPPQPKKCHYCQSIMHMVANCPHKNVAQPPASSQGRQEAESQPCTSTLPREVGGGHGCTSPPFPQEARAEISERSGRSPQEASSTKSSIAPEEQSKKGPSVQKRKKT", "protocol": "(§1)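 Competition-binding assay: HEK293-FT cell lysate (2.5 mg protein) pre-incubated 1 h at 4°C with free motif-containing RNA oligos (0 to 30 µM, 12 doses), then pulled down with the same 5'-amino-C6 RNA oligos immobilised on NHS-Sepharose beads (30 min, 4°C). Bound proteins were quantified by label-free LC-MS/MS and normalised to the water control. EC50 came from a four-parameter log-logistic fit; Kd = EC50 x depletion factor. Random/reversed control probes are dropped.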"}, "NKRF": {"target": "T2, NKRF (UniProt O15226)", "T2 sequence": "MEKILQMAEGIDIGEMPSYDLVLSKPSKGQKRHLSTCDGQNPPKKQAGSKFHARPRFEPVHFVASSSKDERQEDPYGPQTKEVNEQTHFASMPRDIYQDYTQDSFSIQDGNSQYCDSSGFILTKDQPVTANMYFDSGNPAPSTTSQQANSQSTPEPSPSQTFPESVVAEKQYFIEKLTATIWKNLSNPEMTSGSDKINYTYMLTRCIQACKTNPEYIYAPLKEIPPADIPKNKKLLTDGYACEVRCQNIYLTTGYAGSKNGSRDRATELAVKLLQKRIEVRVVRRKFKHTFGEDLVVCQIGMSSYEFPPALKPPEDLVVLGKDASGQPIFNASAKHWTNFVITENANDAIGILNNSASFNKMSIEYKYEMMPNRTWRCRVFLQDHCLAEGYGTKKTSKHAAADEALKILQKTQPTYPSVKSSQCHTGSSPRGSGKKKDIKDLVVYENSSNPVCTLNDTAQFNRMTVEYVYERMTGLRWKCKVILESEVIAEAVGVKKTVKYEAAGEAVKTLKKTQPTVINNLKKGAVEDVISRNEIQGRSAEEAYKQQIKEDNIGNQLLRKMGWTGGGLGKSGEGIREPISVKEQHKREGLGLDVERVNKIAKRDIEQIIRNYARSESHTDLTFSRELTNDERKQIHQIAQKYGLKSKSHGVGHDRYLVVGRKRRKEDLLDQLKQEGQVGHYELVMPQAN", "protocol": "as §1"}, "RTCA": {"target": "T3, RTCA (UniProt O00442)", "T3 sequence": "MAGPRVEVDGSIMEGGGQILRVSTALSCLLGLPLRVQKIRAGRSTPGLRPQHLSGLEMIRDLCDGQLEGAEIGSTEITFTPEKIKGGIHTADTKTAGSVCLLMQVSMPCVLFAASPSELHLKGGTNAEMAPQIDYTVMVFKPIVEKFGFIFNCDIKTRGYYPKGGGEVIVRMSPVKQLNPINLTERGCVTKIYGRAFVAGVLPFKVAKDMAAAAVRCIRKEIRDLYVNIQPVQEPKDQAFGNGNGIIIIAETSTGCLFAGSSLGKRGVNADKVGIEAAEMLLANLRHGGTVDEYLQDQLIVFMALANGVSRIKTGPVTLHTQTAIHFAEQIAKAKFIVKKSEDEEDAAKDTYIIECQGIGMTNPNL", "protocol": "as §1"}, "XRN2": {"target": "T4, XRN2 (UniProt Q9H0D6)", "T4 sequence": "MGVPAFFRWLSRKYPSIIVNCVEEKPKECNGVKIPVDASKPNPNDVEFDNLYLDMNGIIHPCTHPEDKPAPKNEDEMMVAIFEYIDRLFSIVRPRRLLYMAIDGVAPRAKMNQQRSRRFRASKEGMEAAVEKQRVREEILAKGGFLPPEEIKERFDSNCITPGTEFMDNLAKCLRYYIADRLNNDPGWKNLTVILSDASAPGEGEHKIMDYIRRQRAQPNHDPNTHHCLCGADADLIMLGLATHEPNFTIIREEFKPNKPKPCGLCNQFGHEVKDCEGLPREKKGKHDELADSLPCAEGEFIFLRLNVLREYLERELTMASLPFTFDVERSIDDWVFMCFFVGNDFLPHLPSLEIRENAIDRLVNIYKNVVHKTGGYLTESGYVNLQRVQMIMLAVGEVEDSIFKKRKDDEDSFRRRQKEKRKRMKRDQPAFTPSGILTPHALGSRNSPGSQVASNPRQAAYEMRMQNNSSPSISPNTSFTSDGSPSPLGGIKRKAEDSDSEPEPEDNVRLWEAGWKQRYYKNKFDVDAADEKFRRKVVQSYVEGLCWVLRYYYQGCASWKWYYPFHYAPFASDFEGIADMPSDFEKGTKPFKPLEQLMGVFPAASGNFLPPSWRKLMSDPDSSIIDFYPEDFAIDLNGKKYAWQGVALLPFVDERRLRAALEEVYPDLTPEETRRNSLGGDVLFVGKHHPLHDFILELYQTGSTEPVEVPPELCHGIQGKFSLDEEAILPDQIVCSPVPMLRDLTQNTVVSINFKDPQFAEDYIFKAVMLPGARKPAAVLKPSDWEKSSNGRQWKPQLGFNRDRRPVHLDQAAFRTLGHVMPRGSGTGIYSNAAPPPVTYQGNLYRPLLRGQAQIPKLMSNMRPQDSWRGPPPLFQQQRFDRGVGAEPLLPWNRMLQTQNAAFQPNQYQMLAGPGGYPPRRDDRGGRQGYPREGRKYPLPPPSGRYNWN", "protocol": "as §1"}}}
{"sequence": "AAUAAA", "values": [{"measurement": "EC50", "setting": "LIN28B", "value": 2920, "unit": "nM"}, {"measurement": "EC50", "setting": "NKRF", "value": 1180, "unit": "nM"}, {"measurement": "EC50", "setting": "RTCA", "value": 566, "unit": "nM"}, {"measurement": "EC50", "setting": "XRN2", "value": 843, "unit": "nM"}]}
{"sequence": "CUGUCCU", "values": [{"measurement": "EC50", "setting": "LIN28B", "value": 2300, "unit": "nM"}, {"measurement": "EC50", "setting": "NKRF", "value": 554, "unit": "nM"}, {"measurement": "EC50", "setting": "RTCA", "value": 1940, "unit": "nM"}, {"measurement": "EC50", "setting": "XRN2", "value": 147, "unit": "nM"}]}
{"sequence": "UAUUUAU", "values": [{"measurement": "EC50", "setting": "LIN28B", "value": 1470, "unit": "nM"}, {"measurement": "EC50", "setting": "NKRF", "value": 380, "unit": "nM"}, {"measurement": "EC50", "setting": "RTCA", "value": 381, "unit": "nM"}, {"measurement": "EC50", "setting": "XRN2", "value": 409, "unit": "nM"}]}
